The data set has as its system MS2 coat protein. Briefly: apparent KD of MS2 coat protein; designed switch direction (-1 OFF switch, 1 ON switch): -1; higher = weaker reporter binding. In a few lines:
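On Illumina chips, designed RNA switches with common flanks were made by stalled E. coli RNA polymerase. Titrations with SNAP-549-labelled MS2 coat protein, doubling from 0.7 or 1.5 nM to 3 µM, were done with no input, with 200 uM small-molecule ligand, or with an oligonucleotide input. Apparent KD is the median per design over clusters, from curve fits of normalised cluster fluorescence.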

Setting [1] is: Eterna round: R95, input ligand: FMN 200 uM.
Setting [2] is: Eterna round: R95, input ligand: microRNA oligo, concentration not stated.
The mark [3] stands for this setting: Eterna round: R95, input ligand: none.
The mark [4] stands for this setting: input ligand: microRNA oligo, concentration not stated.

Consider “GAUGAGGUAGGAUAUACGAUAAUAUAGGGUAGAUAUAUAACACAUGAGGAUCACCCAUGUAGAAGGACCAGGAG [Mat - Exclusion 2 - Mod of my Tesla design - D65] (puzzle: Exclusion 2)”, for which the “apparent KD of MS2 coat protein” value is, setting by setting: under setting [1], 77.3 nM; under setting [2], 28.1 nM; under setting [3], 36.1 nM.

On to “GAUUAACAUGAGGAUCACCCAUGUGAGGAUAUGAACUUGCCCACUUACCCUUUAGAGUUUAGAAGGCGCAUUCU [1986#33] (Eterna round: R97, puzzle: Exclusion 1)”, for which the “apparent KD of MS2 coat protein” value reads like this: (input ligand: FMN 200 uM) 22.4 nM; (input ligand: none) 28.2 nM.

On to “GAUUAGCGAGGAUAUACAUGAGGAUCACCCAUGUGAUCCUAAGGCUGAUCAAGCCUAUGUAGAAGGCGCAAAUC [salish99_ex3_r5_001] (Eterna round: R97, puzzle: Exclusion 3)”, for which the “apparent KD of MS2 coat protein” value came to 35.2 nM (input ligand: FMN 200 uM) and 224 nM (input ligand: none).

Consider “GAUUAUGCGAGCUUUAGGGACAUGAGGAUCACCCAUGUUCGUCUUAUUAAUCUGGGUGCACUGACAUACCUAAAUCU [JMF 92] (puzzle: Sensor v3, turn-off variant 1)”, for which the “apparent KD of MS2 coat protein” value is, setting by setting: under setting [1], 90.9 nM; under setting [2], 81.9 nM; under setting [3], 132 nM.

Turning to “GAUUAUGCGAGCUUUAGGGACAUGAGGAUCACCCAUGUUCGUCUUAUUAGUCUAAAUACGCUGACAUACCUAAAUCU [JMF 94] (puzzle: Sensor v3, turn-off variant 1)”, the “apparent KD of MS2 coat protein” value turned out to be 14 nM under setting [1], 18 nM under setting [2] and 18.2 nM under setting [3].

Take “GAUUAUGCGAGCUUUAGGGACAUGAGGAUCACCCAUGUUCGUCUUAUUAGUCUAGAUGCACUGACAUACCUAAAUCU [JMF 78] (puzzle: Sensor v3, turn-off variant 1)”: the “apparent KD of MS2 coat protein” value by setting is: under setting [1], 15 nM; under setting [2], 19.6 nM; under setting [3], 14.4 nM.

Consider “GAUUAUGCGAGCUUUAGGGACAUGAGGAUCACCCAUGUUCGUCUUAUUGAUCUAAGUGCACUAACAUACCUAAAUCU [JMF 29] (puzzle: Sensor v3, turn-off variant 1)”, for which the “apparent KD of MS2 coat protein” value under setting [1] was found to be 25.1 nM, the “apparent KD of MS2 coat protein” value under setting [2] is 53.7 nM and the “apparent KD of MS2 coat protein” value under setting [3] is 27 nM.

With “GAUUAUGCGAGCUUUAGGGACAUGAGGAUCACCCAUGUUCGUCUUAUUGAUCUAGGUACGCUGACGUACCUAGAUCU [JL-sv1-2.35 Brourd mod] (puzzle: Sensor v3, turn-off variant 1)”, the “apparent KD of MS2 coat protein” value reads like this: under setting [1], 21.9 nM; under setting [2], 33.7 nM; under setting [3], 21.8 nM.

Consider “GAUUAUGCGAGCUUUAGGGACAUGAGGAUCACCCAUGUUCGUCUUAUUGGUCUGAGUGCACUGACAUACCUAAAUCU [JMF 86] (puzzle: Sensor v3, turn-off variant 1)”, for which the “apparent KD of MS2 coat protein” value is 19.4 nM under setting [1], 30.9 nM under setting [2] and 19.9 nM under setting [3].

Turning to “GAUUAUGCGAGCUUUAGGGACAUGAGGAUCACCCAUGUUCGUCUUAUUGGUCUGGAUACGCUAACAUACCUAAAUCU [JMF 38] (puzzle: Sensor v3, turn-off variant 1)”, the “apparent KD of MS2 coat protein” value is, setting by setting: under setting [1], 21.5 nM; under setting [2], 30.6 nM; under setting [3], 24.8 nM.

Regarding “GAUUAUGCGAGCUUUAGGGACAUGAGGAUCACCCAUGUUCGUCUUAUUGGUCUGGAUGCGCUAACAUACCUAAAUCU [JMF 46] (puzzle: Sensor v3, turn-off variant 1)”, the “apparent KD of MS2 coat protein” value was 22.4 nM under setting [1], 31.7 nM under setting [2] and 22.6 nM under setting [3].

In the case of “GAUUAUGCGAGCUUUAGGGACAUGAGGAUCACCCAUGUUCGUCUUGUUGAUCUAGGUACACUAACAUACCUAAAUCU [JMF 16] (puzzle: Sensor v3, turn-off variant 1)”, the “apparent KD of MS2 coat protein” value under setting [1] was determined as 19.9 nM, the “apparent KD of MS2 coat protein” value under setting [2] was found to be 28.5 nM and the “apparent KD of MS2 coat protein” value under setting [3] was 21.9 nM.

In the case of “GAUUGACAUGAGGAUCACCCAUGUGAGGAUAUCGGCCGGACCUUGUUAGCUUCCGUCGCGAGAAGGCGCAUAGG [Exclusion 1 V37] (puzzle: Exclusion 1)”, the “apparent KD of MS2 coat protein” value under setting [1] is 62.6 nM, the “apparent KD of MS2 coat protein” value under setting [2] amounted to 39.9 nM and the “apparent KD of MS2 coat protein” value under setting [3] worked out at 33.2 nM.

In the case of “GCAAGCUUAAUCAGUAUGAACAUGAGGAUCACCCAUGUAUAAGGUAAUCCUUUUGGGCCCUUUAUUACUCGUCUUAU [JR_STOV1_Sub028] (Eterna round: R97, puzzle: Sensor, turn-off variant 1)”, the “apparent KD of MS2 coat protein” value is, setting by setting: (input ligand: FMN 200 uM) 322 nM; (input ligand: none) 405 nM.

For “GCAAGCUUUUCGAUCCUCGACAUGAGGAUCACCCAUGUGCUCGAAUUGUUUAGUACUAUCACGAAAGUGAUAGUACA [Sensor, turn off variant 1 v.3] (Eterna round: R97, puzzle: Sensor, turn-off variant 1)”, the “apparent KD of MS2 coat protein” value (input ligand: FMN 200 uM) was found to be 1570 nM and the “apparent KD of MS2 coat protein” value (input ligand: none) was 1570 nM.

With “GCAAGCUUUUUCAAUAAGAACAUGAGGAUCACCCAUGUUUAAGGUAUUACUUUUGGGCUCUUUAGUGCUAGUCUUAU [JR_STOV1_Sub036] (Eterna round: R97, puzzle: Sensor, turn-off variant 1)”, the “apparent KD of MS2 coat protein” value is, setting by setting: (input ligand: FMN 200 uM) 45.9 nM; (input ligand: none) 45.5 nM.

As for “GCACGAAGUGGAGGAUAUCUGGGCGAGGAGCGCAGAGAAGGCCACAUGAGGAUCACCCAUGUUUUCCACGGAUAGCAAACGUGC [exng1 ex2.1] (Eterna round: R96, puzzle: Exclusion NG 1)”, the “apparent KD of MS2 coat protein” value reads like this: (input ligand: FMN 200 uM) 25.5 nM; under setting [4], 15.2 nM; (input ligand: none) 23 nM.

Turning to “GCACGAAGUGUAGGAUAUCUGUGCGAUUAGCUCAGAGAAGGACACAUGAGGAUCACCCAUGUGUUUCACGGAAACGAAACGUGC [Eli exng1 - 054] (Eterna round: R96, puzzle: Exclusion NG 1)”, the “apparent KD of MS2 coat protein” value runs as follows: (input ligand: FMN 200 uM) 10.7 nM; under setting [4], 9.54 nM; (input ligand: none) 16.2 nM.

Take “GCACGAUAUCAGGAUAUGACUAGCUUCGGCUAGUCAGAAGGGAUGACAUGAGGAUCACCCAUGUGAUCACGUGC [E6/1-B1] (Eterna round: R97, puzzle: Exclusion 6)”: the “apparent KD of MS2 coat protein” value was 79.6 nM (input ligand: FMN 200 uM) and 60.5 nM (input ligand: none).

As to “GCACGGAGUGUAGGAUAUCUGUGCGAUUAGCUCAGAGAAGGACACAUGAGGAUCACCCAUGUGUAACUCAACAAUAAUCCGUGC [Eli exng1 - 073] (Eterna round: R96, puzzle: Exclusion NG 1)”, the “apparent KD of MS2 coat protein” value reads like this: (input ligand: FMN 200 uM) 18.3 nM; under setting [4], 8.53 nM; (input ligand: none) 11.9 nM.

“GCACGGAGUGUAGGAUAUUAGUGCGAUUAGCACUGAGAAGGACAUGAGGAUCACCCAUGUUCCUCGAUAAAAUACCUUCCGUGC [Eli exng1 - 041] (Eterna round: R96, puzzle: Exclusion NG 1)”: the “apparent KD of MS2 coat protein” value (input ligand: FMN 200 uM) was determined as 13.2 nM, the “apparent KD of MS2 coat protein” value under setting [4] turned out to be 7.59 nM and the “apparent KD of MS2 coat protein” value (input ligand: none) was 11.8 nM.

On to “GCACGGUAAGUGAGGAUAUACCUCUGGAUACAGAGGUAGAAGGCACAUGAGGAUCACCCAUGUCUAAACCGUGC [Fiskers BMX 4 - 82] (puzzle: Brourd's mod of Exclusion 4)”, for which the “apparent KD of MS2 coat protein” value is, setting by setting: under setting [1], 24.9 nM; under setting [2], 18.6 nM; under setting [3], 18 nM.

The record behind these values is the supplement of paper PMC9170038.
